Measured values: publication PMC3737229, “Novel Dicarboxylate Selectivity in an Insect Glutamate Transporter Homolog” (PLoS ONE, 2013)

Tests used:
CuqDCT = molecular target: T1, CuqDCT (Culex quinquefasciatus, UniProt B0W0K5); test: two-electrode voltage clamp, transport currents in oocytes; assay type: cell-based; details: -60 mV; 96 mM NaCl Ringer, pH 7.5
T1 construct: gene 6031434; synthetic gene, full length, in-frame C-terminal GFP (EGFP), pCDNA3.1; cRNA expressed in Xenopus laevis oocytes
T1 sequence (B0W0K5 1-483): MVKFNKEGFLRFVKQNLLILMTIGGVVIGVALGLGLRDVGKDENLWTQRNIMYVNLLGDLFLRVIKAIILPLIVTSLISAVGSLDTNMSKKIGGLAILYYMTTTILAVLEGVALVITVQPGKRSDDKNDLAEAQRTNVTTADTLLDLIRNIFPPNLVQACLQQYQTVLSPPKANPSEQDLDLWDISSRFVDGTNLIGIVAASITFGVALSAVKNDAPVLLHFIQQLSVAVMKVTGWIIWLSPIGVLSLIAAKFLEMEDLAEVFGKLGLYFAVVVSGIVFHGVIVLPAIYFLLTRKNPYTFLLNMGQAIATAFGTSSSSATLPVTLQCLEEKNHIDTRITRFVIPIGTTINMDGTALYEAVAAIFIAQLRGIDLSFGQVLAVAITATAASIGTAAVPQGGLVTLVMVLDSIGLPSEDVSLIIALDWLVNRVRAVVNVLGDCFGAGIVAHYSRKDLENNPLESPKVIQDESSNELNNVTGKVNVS

N[C@@H](CCC(=O)O)C(=O)O = system: T2, N[C@@H](CCC(=O)O)C(=O)O; test: as above; assay type: cell-based, Culex quinquefasciatus; details: -60 mV, 96 mM NaCl Ringer, pH 7.5
T2 construct: synthetic gene, full length, in-frame C-terminal GFP (EGFP), pCDNA3.1; cRNA expressed in Xenopus laevis oocytes

O=C(O)C[C@H](O)C(=O)O = system: T3, O=C(O)C[C@H](O)C(=O)O; test: as above; assay type: cell-based, Culex quinquefasciatus; details: -60 mV, 96 mM NaCl Ringer, pH 7.5
T3 construct: synthetic gene, full length, in-frame C-terminal GFP (EGFP), pCDNA3.1; cRNA expressed in Xenopus laevis oocytes

[1] = substrate: O=C(O)C[C@H](O)C(=O)O; test: cells, lysate or membranes; details: -60 mV, 96 mM NaCl Ringer, pH 7.5
[2] = substrate: O=C(O)CCC(=O)C(=O)O; test: two-electrode voltage clamp, transport currents in oocytes; assay type: cell-based, Culex quinquefasciatus; details: -60 mV, 96 mM NaCl Ringer, pH 7.5
[3] = substrate: N[C@@H](CCC(=O)O)C(=O)O; test: as above; assay type: cell-based, Culex quinquefasciatus; details: -60 mV, 96 mM NaCl Ringer, pH 7.5

O=C(O)CCC(=O)O [succinate]
Km (CuqDCT): 50.8 ± 2.3 µM

CuqDCT (Culex quinquefasciatus; N428D)
Km (N[C@@H](CCC(=O)O)C(=O)O): 13.8 ± 1.3 µM
Km (O=C(O)C[C@H](O)C(=O)O): 8800 ± 1500 µM

B1: CuqDCT (Culex quinquefasciatus) (protein)
chain: T1 sequence (B0W0K5 1-483)
notes: synthetic gene, full length, in-frame C-terminal GFP (EGFP), pCDNA3.1; cRNA expressed in Xenopus laevis oocytes
Km [1]: 10.5 ± 0.5 µM
Km [2]: 20.2 ± 1.2 µM
Km [3]: 1085 ± 96 µM
